Data: article PMC10139975 (iScience, 2023)

Target: T1, GPR110 F663S mutant (C-terminal HA tag) (human, UniProt Q5T601-1 20-910, F663S)
T1 sequence (looked up): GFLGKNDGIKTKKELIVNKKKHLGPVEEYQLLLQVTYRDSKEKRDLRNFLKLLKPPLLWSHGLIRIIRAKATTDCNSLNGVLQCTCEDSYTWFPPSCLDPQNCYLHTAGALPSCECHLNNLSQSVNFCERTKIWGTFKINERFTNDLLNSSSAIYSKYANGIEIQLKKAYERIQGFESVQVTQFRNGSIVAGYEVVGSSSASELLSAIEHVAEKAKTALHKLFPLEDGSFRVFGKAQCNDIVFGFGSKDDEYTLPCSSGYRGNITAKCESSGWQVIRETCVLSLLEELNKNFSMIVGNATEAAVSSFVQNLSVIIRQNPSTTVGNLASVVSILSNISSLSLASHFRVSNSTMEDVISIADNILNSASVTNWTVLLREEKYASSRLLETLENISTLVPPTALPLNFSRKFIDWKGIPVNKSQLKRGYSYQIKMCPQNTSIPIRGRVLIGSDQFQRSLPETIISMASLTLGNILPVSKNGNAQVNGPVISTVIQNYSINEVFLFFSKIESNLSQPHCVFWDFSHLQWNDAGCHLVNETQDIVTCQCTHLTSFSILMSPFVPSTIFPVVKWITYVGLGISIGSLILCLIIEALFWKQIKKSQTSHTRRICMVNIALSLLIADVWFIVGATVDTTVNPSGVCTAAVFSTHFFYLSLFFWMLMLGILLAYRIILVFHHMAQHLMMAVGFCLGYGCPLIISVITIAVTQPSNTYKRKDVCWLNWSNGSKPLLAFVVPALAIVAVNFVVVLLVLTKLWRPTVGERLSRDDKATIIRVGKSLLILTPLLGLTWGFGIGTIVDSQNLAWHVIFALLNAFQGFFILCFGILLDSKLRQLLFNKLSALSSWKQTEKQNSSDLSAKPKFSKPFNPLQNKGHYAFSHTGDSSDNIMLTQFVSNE
Assay: cross-linking + affinity purification with mass spectrometry

fold less than with WT GPR110 (label-free MS quantitation): 5 fold
B1: occludin (tight junction protein) (natural protein, human (endogenous in HEK293), UniProt Q16625 1-522, looked up)
chain: MSSRPLESPPPYRPDEFKPNHYAPSNDIYGGEMHVRPMLSQPAYSFYPEDEILHFYKWTSPPGVIRILSMLIIVMCIAIFACVASTLAWDRGYGTSLLGGSVGYPYGGSGFGSYGSGYGYGYGYGYGYGGYTDPRAAKGFMLAMAAFCFIAALVIFVTSVIRSEMSRTRRYYLSVIIVSAILGIMVFIATIVYIMGVNPTAQSSGSLYGSQIYALCNQFYTPAATGLYVDQYLYHYCVVDPQEAIAIVLGFMIIVAFALIIFFAVKTRRKMDRYDKSNILWDKEHIYDEQPPNVEEWVKNVSAGTQDVPSPPSDYVERVDSPMAYSSNGKVNDKRFYPESSYKSTPVPEVVQELPLTSPVDDFRQPRYSSGGNFETPSKRAPAKGRAGRSKRTEQDHYETDYTTGGESCDELEEDWIREYPPITSDQQRQLYKRNFDTGLQEYKSLQSELDEINKELSRLDKELDDYREESEEYMAAADEYNRLKQVKGSADYKSKKNHCKQLKSKLSHIKKMVGDYDRQKT
